Assay results reported in patent publication US20240116985A1 (published 2024).
Starred links: 1 amine or outer side, 2 acyl side, 3 side chain; linkers in the order of their positions; H or OH if unused. Positions of bridges follow the written chain, without caps; N, C: chain ends. Non-standard residues stand in square brackets, D forms with d. Primed or numbered codes have the meaning given here. *: point of attachment. B5(10) = 2-amino-2-(pent-4-en-1-yl)hept-6-enoic acid, bis(4-pentenyl)glycine, stitching residue bearing both staples, C=CCCCC(CCCC=C)(N[*:1])C(=O)[*:2]; PyrS2″ = (S)-3-amino-1-((pent-4-en-1-yloxy)carbonyl)pyrrolidine-3-carboxylic acid (stapling residue), C=CCCCOC(=O)N1CC[C@@](N[*:1])(C(=O)[*:2])C1; B5(17) = 2,2-bis(4-pentenyl)glycine = 2-amino-2-(pent-4-en-1-yl)hept-6-enoic acid, stitching residue, C=CCCCC(CCCC=C)(N[*:1])C(=O)[*:2]; PyrS2 = (S)-3-amino-1-((pent-4-en-1-yloxy)carbonyl)pyrrolidine-3-carboxylic acid, C=CCCCOC(=O)N1CC[C@@](N[*:1])(C(=O)[*:2])C1; TriAzDap = Dap whose side chain is a 1H-1,2,3-triazol-1-yl bearing the bracketed 4-substituent; B5(3) = 2,2-bis(4-pentenyl)glycine (stitching residue), C=CCCCC(CCCC=C)(N[*:1])C(=O)[*:2]; Phe(3-COOH) = N[C@@H](Cc1cccc(C(=O)O)c1)C(=O)O; Phe(2-CF3) = N[C@@H](Cc1ccccc1C(F)(F)F)C(=O)O; Bta = N[C@@H](Cc1csc2ccccc12)C(=O)O; αAllylPro = C=CC[C@@]1(C(=O)O)CCCN1; tBuAla = CC(C)(C)C[C@H](N)C(=O)O; S8 = C=CCCCCCC[C@](C)(N)C(=O)O; CMe2CO2H = CC(C)(C(=O)O)*; Abu = CC[C@H](N)C(=O)O; Aib = CC(C)(N)C(=O)O

Columns and labels:
[1] = molecular target: T1, B-cat-Halo (UniProt P35222 1-781, HaloTag NanoBRET 618 Ligand bound in the assay); assay: NanoBRET Abs IC50 in HEK293 cells; B-cat-Halo, competitor TCF4-Luc
T1 construct: Transfected into HEK293 cells for the NanoBRET assay; also called beta-catenin HaloTag NanoBRET construct; not shown: HaloTag
T1 sequence (looked up): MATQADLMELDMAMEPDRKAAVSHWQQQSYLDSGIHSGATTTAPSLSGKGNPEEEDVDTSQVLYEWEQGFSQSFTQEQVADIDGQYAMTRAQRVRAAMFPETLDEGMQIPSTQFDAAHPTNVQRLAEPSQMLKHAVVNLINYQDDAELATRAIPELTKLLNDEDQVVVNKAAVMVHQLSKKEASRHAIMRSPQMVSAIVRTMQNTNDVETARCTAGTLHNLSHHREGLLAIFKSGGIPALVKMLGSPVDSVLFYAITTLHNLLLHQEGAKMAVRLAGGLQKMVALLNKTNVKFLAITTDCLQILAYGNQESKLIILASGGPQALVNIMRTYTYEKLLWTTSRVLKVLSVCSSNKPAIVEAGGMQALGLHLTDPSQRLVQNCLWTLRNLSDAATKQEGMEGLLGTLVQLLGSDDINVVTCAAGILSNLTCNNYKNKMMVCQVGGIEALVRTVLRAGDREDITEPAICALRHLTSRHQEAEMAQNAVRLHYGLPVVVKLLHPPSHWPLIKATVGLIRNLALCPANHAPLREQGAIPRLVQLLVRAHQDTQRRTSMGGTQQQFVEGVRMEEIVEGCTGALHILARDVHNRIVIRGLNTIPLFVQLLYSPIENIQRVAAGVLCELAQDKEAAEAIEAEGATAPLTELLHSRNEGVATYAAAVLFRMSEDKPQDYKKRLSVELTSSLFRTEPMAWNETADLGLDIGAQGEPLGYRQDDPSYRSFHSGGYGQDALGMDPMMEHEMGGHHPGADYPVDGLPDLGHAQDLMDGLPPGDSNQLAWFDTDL

[2] = molecular target: T2, full-length beta-Catenin (Uniprot ID P35222) (Homo sapiens (Human), UniProt P35222 1-781); assay: fluorescence polarization competition; full-length beta-catenin, competitor 5FAM-TCF4(10-53) probe
T2 construct: also called bCat; B-Catenin
T2 sequence: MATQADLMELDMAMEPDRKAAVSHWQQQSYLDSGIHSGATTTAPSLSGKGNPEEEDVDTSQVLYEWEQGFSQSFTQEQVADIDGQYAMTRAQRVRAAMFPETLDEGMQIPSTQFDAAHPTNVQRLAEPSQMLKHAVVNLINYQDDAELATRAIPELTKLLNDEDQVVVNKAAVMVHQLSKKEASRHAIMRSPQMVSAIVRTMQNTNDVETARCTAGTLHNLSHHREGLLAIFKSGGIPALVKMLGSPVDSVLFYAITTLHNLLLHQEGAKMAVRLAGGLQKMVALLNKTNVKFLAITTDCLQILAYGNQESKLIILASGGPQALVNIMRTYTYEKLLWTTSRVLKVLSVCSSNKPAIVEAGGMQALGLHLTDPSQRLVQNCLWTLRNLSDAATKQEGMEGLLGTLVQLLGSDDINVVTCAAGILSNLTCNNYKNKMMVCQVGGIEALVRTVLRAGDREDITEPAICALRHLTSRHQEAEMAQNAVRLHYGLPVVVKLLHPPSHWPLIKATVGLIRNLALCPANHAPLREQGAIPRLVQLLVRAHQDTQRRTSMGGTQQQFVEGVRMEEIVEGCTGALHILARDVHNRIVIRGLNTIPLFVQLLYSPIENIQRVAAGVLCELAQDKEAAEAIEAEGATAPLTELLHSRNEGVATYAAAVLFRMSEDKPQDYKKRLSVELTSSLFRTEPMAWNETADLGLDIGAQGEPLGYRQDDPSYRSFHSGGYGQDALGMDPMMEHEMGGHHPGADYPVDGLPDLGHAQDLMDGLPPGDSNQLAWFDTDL
Procedure, shortened: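 Fluorescence polarization was read in duplicate after the plate sat 60 minutes at 20° C. shielded from light. Values come from fitting to a 1:1 binding model with hill slope.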

[3] = molecular target: T3, full-length beta-Catenin (Uniprot ID P35222) (Homo sapiens (Human), UniProt P35222 1-781); assay: fluorescence polarization competition; full-length beta-catenin + 5FAM-TCF4(10-53) probe
T3 construct: also called bCat; B-Catenin
T3 sequence: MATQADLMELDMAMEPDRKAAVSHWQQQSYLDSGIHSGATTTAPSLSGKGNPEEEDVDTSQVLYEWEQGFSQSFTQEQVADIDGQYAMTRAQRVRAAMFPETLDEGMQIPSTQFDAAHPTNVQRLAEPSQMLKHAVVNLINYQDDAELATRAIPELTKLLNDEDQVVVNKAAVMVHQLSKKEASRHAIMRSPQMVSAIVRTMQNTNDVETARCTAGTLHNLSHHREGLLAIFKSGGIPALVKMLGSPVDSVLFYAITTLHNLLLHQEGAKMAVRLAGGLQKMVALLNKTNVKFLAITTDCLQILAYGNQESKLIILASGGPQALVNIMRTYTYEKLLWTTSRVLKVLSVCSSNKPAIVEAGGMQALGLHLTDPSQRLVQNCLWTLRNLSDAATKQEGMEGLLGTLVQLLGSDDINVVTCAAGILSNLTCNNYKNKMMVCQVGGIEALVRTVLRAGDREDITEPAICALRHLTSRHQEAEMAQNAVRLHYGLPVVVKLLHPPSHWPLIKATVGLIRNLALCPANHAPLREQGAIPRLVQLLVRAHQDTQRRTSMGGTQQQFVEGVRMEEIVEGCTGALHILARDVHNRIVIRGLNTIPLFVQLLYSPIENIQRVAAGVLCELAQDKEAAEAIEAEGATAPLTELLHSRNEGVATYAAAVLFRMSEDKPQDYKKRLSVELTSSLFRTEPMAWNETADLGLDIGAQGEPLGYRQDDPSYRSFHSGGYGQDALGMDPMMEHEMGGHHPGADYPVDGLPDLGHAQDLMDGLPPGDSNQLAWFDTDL
Procedure: The plate was incubated protected from light for 60 minutes at 20° C. prior to read. Reads were performed on a CLARIOstar plate reader (BMG Labtech) in duplicate, and data were fitted to a 1:1 binding model with hill slope using an in-house script. All provided concentrations are final concentrations.

[4] = molecular target: T4, B-cat-Halo (beta-catenin HaloTag NanoBRET construct expressed in HEK293 cells) (UniProt P35222 1-781); assay: cell-based or functional assay
T4 sequence (looked up): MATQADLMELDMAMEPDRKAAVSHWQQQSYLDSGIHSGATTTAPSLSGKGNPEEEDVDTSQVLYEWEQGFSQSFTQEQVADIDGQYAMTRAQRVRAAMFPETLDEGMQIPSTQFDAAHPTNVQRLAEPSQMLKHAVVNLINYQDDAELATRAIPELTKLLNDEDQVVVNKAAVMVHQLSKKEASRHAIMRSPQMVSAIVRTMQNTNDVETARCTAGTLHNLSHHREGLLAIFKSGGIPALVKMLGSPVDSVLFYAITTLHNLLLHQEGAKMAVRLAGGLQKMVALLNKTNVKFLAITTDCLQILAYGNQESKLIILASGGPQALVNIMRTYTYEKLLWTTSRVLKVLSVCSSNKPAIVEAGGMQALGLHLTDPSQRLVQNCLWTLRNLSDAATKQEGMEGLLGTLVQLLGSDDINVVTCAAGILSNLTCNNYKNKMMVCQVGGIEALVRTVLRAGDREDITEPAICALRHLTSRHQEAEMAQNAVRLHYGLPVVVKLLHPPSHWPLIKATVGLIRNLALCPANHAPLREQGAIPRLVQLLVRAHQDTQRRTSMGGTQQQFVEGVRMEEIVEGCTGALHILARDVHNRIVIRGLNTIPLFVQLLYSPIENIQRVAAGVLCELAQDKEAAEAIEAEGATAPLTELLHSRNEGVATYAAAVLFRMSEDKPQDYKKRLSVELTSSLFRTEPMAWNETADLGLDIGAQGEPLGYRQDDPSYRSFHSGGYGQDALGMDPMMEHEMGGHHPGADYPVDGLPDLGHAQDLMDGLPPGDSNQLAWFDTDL

[5] = molecular target: T5, beta-catenin in DLD1 TCF/LEF luciferase reporter cells (UniProt P35222 1-781); assay: cell-based or functional assay
T5 sequence (looked up): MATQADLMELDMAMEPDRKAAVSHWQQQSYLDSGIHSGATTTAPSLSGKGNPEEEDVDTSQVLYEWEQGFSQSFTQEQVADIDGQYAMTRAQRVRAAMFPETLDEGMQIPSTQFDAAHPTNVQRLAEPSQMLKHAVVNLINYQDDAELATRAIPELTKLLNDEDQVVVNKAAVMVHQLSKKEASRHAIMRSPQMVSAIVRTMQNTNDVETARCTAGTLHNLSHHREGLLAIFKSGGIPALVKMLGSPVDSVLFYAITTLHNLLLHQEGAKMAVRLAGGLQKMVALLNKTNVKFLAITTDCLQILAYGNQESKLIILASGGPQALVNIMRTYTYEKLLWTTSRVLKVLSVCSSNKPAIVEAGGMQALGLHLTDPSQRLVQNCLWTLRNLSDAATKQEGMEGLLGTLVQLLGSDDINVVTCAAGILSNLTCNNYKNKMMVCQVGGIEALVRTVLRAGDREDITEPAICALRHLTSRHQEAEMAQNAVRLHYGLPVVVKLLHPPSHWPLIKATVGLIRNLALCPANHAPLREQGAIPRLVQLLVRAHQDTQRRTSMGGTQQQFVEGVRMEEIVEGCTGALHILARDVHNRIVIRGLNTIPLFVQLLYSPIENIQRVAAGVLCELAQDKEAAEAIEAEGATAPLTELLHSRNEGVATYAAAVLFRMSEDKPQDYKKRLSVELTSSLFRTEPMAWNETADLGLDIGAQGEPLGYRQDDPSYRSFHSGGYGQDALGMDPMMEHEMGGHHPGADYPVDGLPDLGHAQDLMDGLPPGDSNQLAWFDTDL

[6] = molecular target: T6, beta-catenin in DLD1 TCF/LEF luciferase reporter cells (UniProt P35222 1-781); assay: cell-based or functional assay; remark: listed apart in the source
T6 sequence (looked up): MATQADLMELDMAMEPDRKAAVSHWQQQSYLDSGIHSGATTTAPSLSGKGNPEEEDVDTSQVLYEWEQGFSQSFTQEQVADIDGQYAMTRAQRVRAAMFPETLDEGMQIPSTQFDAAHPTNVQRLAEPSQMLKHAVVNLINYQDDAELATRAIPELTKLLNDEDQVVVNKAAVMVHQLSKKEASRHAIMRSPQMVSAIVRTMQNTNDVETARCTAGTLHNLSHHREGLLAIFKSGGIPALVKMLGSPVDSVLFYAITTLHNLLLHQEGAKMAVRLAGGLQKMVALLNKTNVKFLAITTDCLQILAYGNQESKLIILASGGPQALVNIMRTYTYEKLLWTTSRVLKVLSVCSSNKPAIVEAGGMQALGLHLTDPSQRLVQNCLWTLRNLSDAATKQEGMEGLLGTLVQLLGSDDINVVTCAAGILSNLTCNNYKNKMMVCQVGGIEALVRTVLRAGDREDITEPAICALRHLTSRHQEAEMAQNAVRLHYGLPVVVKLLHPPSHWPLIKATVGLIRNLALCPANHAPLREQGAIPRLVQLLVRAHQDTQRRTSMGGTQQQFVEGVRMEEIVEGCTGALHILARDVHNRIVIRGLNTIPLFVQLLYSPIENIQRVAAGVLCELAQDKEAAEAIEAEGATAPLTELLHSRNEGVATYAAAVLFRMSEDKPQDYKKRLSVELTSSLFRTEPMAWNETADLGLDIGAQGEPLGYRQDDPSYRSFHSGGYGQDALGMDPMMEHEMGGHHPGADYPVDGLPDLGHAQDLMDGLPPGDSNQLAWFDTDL

B1: I-731 (peptide)
peptide: Ac-[αAllylPro]DL[B5(17)]DEAAFN[S8]F[Bta]Q[dA]-NH2
modifications: staple 1-4, 4-11
notes: also called Ac-PL3-Asp-Leu-B5-Asp-Glu-Ala-Ala-Phe-Asn-S8-Phe-BztA-Gln-dAla-NH2
IC50 [1]: 11.6 µM | IC50 [2]: 0.034 µM

B2: I-1287 (peptide)
peptide: Ac-[αAllylPro]NA[B5(10)]DTAAFL[PyrS2]F[Bta]Q-NH2
modifications: staple 1-4, 4-11; not fully specified; printed as Ac-PL3-Asn-Ala-B5-Asp-Thr-Ala-Ala-Phe-Leu-PyrS2-Phe-BztA-Gln-NH2
EC50 [3]: 10 µM

B3: Ac-PL3-Asp-Npg-B5-Asp-3COOHF-Aib-Ala-Phe-Abu-PyrS2-2F3MeF-BztA-Me2Gln-Ala-NH2 (peptide)
peptide: Ac-[αAllylPro]D[tBuAla][B5(3)]D[Phe(3-COOH)][Aib]AF[Abu][PyrS2″][Phe(2-CF3)][Bta][Me2Gln]A-NH2
modifications: staple 1-4, 4-11
NanoBRET Abs IC50 [4]: 6.2 µM | DLD1 4% Abs IC50 [5]: 6.4 µM

B4: I-2374 (peptide)
peptide: Ac-[αAllylPro]D[tBuAla][B5(3)]D[TriAzDap](CMe2CO2H)AAFL[PyrS2″][Phe(2-CF3)][Bta]S-NH2
modifications: staple 1-4, 4-11
DLD1 4% Abs IC50 [6]: 2.6 µM
